From patent publication WO1994018227A2

Biological target: natural affinity purified heavy chain class I K d molecules
Assay: binding inhibition experiment with radiolabelled ligands

Substance: Recombinant murine β2-microglobulin
- affinity, fold lower than the human β2-microglobulin: 5 times lower
